Experimental data: IntAct's records for PubMed 24997600

B1: Regulation of nuclear pre-mRNA domain-containing protein 1B (Homo sapiens), Q9NQG5 (parent)
chain: MSSFSESALEKKLSELSNSQQSVQTLSLWLIHHRKHAGPIVSVWHRELRKAKSNRKLTFLYLANDVIQNSKRKGPEFTREFESVLVDAFSHVAREADEGCKKPLERLLNIWQERSVYGGEFIQQLKLSMEDSKSPPPKATEEKKSLKRTFQQIQEEEDDDYPGSYSPQDPSAGPLLTEELIKALQDLENAASGDATVRQKIASLPQEVQDVSLLEKITDKEAAERLSKTVDEACLLLAEYNGRLAAELEDRRQLARMLVEYTQNQKDVLSEKEKKLEEYKQKLARVTQVRKELKSHIQSLPDLSLLPNVTGGLAPLPSAGDLFSTD

Variants of: B1
Conditions: with rpb1_human POLR2A

Q: With R114A as the variant, how does the “effect of a mutation on the interaction” value read?
A: disrupting interaction strength
